Biological target: neuropilin-1 (NRP1) (mouse (endogenous protein of the mouse …, UniProt P97333 22-923))
Assay: co-immunoprecipitation with anti-NRP1 antibody from NSC-34 lysates, anti-V5 Western blot
Description: Cells were grown to 70% confluency before transfection. A human wild-type, P234KY, or ΔETAQ GARS cDNA was cloned into the pcDNA6 plasmid to express GARS in-frame with a V5 tag. Transfections were performed using Lipofectamine 2000 (Invitrogen) according to the manufacturer's instruction. For cell lysate preparations, NSC-34 cells (36 hours after transfection) were washed twice in phosphate-buffered saline (PBS), scraped into PBS, pelleted, and resuspended in Pierce IP Lysis Buffer (Thermo Scientific) for 30 min and centrifuged for 7 min at 12,000×g; the insoluble fraction was discarded. Protein G beads (Invitrogen) were pre-incubated with anti-NRP1 antibody (Abcam) or rabbit IgG (Cell signaling) for 30 min before mixed with the cell lysates for overnight. […] Wild-type and mutant GARS proteins were detected using mouse monoclonal V5 antibody purchased from Invitrogen. NRP1 was detected by utilizing the same antibody for co-immunoprecipitation. […]
After immunoprecipitation with an anti-NRP1 antibody, proteins were subjected to Western blot analysis using an anti-V5 antibody. […] Nevertheless, no interaction between ΔETAQ GARS and NRP1 was detected in unbiased mass spectrometry analyses of proteins immuno-precipitated from mouse neuroblastoma (MN1) cells expressing FLAG-tagged wild-type or V5-tagged ΔETAQ GARS.

B1: V5-tagged wild-type human GARS (glycyl-tRNA synthetase) (enzyme, UniProt P41250-2 1-685, looked up)
chain: MDGAGAEEVLAPLRLAVRQQGDLVRKLKEDKAPQVDVDKAVAELKARKRVLEAKELALQPKDDIVDRAKMEDTLKRRFFYDQAFAIYGGVSGLYDFGPVGCALKNNIIQTWRQHFIQEEQILEIDCTMLTPEPVLKTSGHVDKFADFMVKDVKNGECFRADHLLKAHLQKLMSDKKCSVEKKSEMESVLAQLDNYGQQELADLFVNYNVKSPITGNDLSPPVSFNLMFKTFIGPGGNMPGYLRPETAQGIFLNFKRLLEFNQGKLPFAAAQIGNSFRNEISPRSGLIRVREFTMAEIEHFVDPSEKDHPKFQNVADLHLYLYSAKAQVSGQSARKMRLGDAVEQGVINNTVLGYFIGRIYLYLTKVGISPDKLRFRQHMENEMAHYACDCWDAESKTSYGWIEIVGCADRSCYDLSCHARATKVPLVAEKPLKEPKTVNVVQFEPSKGAIGKAYKKDAKLVMEYLAICDECYITEMEMLLNEKGEFTIETEGKTFQLTKDMINVKRFQKTLYVEEVVPNVIEPSFGLGRIMYTVFEHTFHVREGDEQRTFFSFPAVVAPFKCSVLPLSQNQEFMPFVKELSEALTRHGVSHKVDDSSGSIGRRYARTDEIGVAFGVTIDFDTVNKTPHTATLRDRDSMRQIRAEISELPSIVQDLANGNITWADVEARYPLFEGQETGKKETIEE
notes: Expressed by transfection in mouse NSC-34 cells and tested from the cell lysate; also called wild-type GARS; WT GARS; not shown: V5 tag expressed in-frame from pcDNA6
B1: no binding.
